Data: publication PMC6827878 (Cell, 2018)

Target: Recombinant PP4R3β (His tagged SMEK2) (UniProt Q5MIZ7 1-849)
Experiment: ITC

Chain of Recombinant PP4R3β (His tagged SMEK2) (Q5MIZ7 whole entry): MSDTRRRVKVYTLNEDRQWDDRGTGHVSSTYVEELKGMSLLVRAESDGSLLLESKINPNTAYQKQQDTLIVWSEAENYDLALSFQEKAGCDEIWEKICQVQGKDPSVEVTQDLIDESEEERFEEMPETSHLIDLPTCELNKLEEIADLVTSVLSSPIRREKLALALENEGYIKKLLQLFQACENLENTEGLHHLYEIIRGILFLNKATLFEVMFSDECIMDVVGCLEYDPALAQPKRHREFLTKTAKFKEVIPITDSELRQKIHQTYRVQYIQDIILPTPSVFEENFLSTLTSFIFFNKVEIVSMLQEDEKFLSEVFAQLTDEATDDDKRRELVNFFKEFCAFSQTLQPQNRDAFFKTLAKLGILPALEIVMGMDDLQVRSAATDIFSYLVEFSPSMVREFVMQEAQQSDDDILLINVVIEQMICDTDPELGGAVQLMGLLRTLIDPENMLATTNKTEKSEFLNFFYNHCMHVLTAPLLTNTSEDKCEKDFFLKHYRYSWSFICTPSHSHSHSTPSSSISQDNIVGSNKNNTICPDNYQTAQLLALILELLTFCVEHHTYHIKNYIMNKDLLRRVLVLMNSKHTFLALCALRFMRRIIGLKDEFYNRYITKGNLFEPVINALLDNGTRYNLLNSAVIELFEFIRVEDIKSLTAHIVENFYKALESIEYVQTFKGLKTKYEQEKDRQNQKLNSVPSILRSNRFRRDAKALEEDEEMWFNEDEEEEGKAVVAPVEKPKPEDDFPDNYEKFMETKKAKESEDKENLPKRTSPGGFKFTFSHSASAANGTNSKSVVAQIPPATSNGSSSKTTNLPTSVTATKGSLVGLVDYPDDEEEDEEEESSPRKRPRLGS

Kd: 370 ± 30 nM
B1: GST-CT45A1 (natural protein, human, UniProt Q5HYN5 1-189, looked up)
chain: MTDKTEKVAVDPETVFKRPRECDSPSYQKRQRMALLARKQGAGDSLIAGSAMSKAKKLMTGHAIPPSQLDSQIDDFTGFSKDRMMQKPGSNAPVGGNVTSSFSGDDLECRETASSPKSQREINADIKRKLVKELRCVGQKYEKIFEMLEGVQGPTAVRKRFFESIIKEAARCMRRDFVKHLKKKLKRMI
